B1: deimmunized B4 antibody DIVHv.4/VKv.3 produced by NS0 cells (antibody, human IgG1, V domains shown)
VH: QVQLVQSGAEVKKPGASVKVSCKASGYTFTDYVIHWVRQATGQGLEWIGEIYPGSGSAYSNSKFKDRVTITADKSTNTAYMELRSLRSDDTAVYFCARRGNGTGFAYWGQGTLVTVSS
VL: DIVLTQSPASLAVSPGQRATITCKAGQSVDYDGDSYMNWYQQKPGQPPKLLIYVASNLESGIPSRFSGSGSGTDFTLTINPVEENDTATYYCQQSYKDPLAFGPGTKVEIK
notes: Human IgG1 and human kappa constant regions; NS0 cells; also called DIVHv.4/V v.3
B2: chimeric B4 antibody (antibody, human IgG1, V domains shown)
VH: QVQLQQSGPELVKPGASVRMSCKASGYTFTDYVIHWVKQRTGQGLEWIGEIYPGSGSAYSNAKFKDKATLTADKSSNTAYMQLSSLTSEDSAVYFCARRGNGTGFAYWGQGTLVTVSA
VL: DIVLTQSPASLAVSLGQRATISCKAGQSVDYDGDSYMNWYQQKPGQPPKLLIYVASNLESGIPARFSGSGSGTDFTLNIHPVEEEDAATYYCQQSYKDPLTFGAGTKLELK
notes: Fully murine B4 variable regions joined to human IgG1 and human kappa constant regions; also called B4 chimeric antibody; chimeric antibody

Assays:
[1] = target: CD4 on the surface of host T cells (HIV receptor complex involving CD4) (UniProt P01730 26-458, limits assumed); assay: cell-based or functional assay
[2] = target: T1, recombinant soluble CD4 (rsCD4) (UniProt P01730 26-396, limits assumed); assay: ELISA on rsCD4
T1 construct: Bought reagent coated on ELISA plates at 0.25 µg/ml; also called solid-phase rsCD4

[3] = target: T1, recombinant soluble CD4 (rsCD4); assay: ELISA, rsCD4 coated at 0.25 µg/ml
Description: Tween® 20 in PBS. Various dilutions of the chimeric antibody and the mouse antibody as the positive control were applied. Detection was with peroxidase conjugated goat anti-human IgG and sheep anti-mouse for chimeric and mouse antibodies respectively. Color was developed with OPD.
Both the chimeric and mouse antibodies provided increases in A₄₉₂ at all concentrations of antibodies when added to the solid-phase rsCD4. This assay confirmed that the cloned and sequenced heavy and light chain variable regions retained the correct recognition site.

Binder | Antibody Conc (µg/ml) at 50% Inhibition; MT-2 microplaque neutralization, HIV-1 TH036 (PBL), clade E [1] [µg/mL] | Antibody Conc (µg/ml) at 50% Inhibition; MT-2 microplaque neutralization, HIV-1 UG029 (PBL), clade A [1] [µg/mL] | Antibody Conc (µg/ml) at 50% Inhibition; MT-2 microplaque neutralization, HIV-1 VL135 (PBL), clade B [1] [µg/mL] | fold reduction in binding compared to the chimeric antibody [2] [fold] | fold reduction in A492 compared to the original mouse antibody [3] [fold]
B1 | 0.63 | 1.1 | 0.48 | 5 | 
B2 |  |  |  |  | 10

— patent US20040137000A1 (UNITED BIOMEDICAL, published 2004)
